Test [1] addresses biotinylated antigen (biotinylated 16-branched citrullinated peptide). The test can be described thus: magnetic particle chemiluminescence immunoassay; antibody at 200 RU/ml; kit stored at 4 C for 7 days.
For test [2] the target is unchanged. The test can be described thus: magnetic particle chemiluminescence immunoassay; antibody at 80 RU/ml; kit stored at 4 C for 7 days.
Test [3] shares this target. In words: magnetic particle chemiluminescence immunoassay; antibody at 200 RU/ml; kit stored at 4 C for 7 days; mean of two.
Test [4] has the same target. The test can be described thus: magnetic particle chemiluminescence immunoassay; antibody at 10 RU/ml; kit stored at 37 C for 7 days; mean of two.
Test [5] has the same target. The test can be described thus: magnetic particle chemiluminescence immunoassay, antigen on streptavidin particles, AP anti-human IgG detection; antibody at 10 RU/ml; kit stored at 4 C for 7 days.
The target is the same in test [6]. The test can be described thus: magnetic particle chemiluminescence immunoassay; antibody at 10 RU/ml; kit stored at 4 C for 7 days; mean of two.
Test [7] shares this target. The test can be described thus: magnetic particle chemiluminescence immunoassay; antibody at 10 RU/ml; kit stored at 4 C for 7 days.
Test [8] shares this target. The test can be described thus: magnetic particle chemiluminescence immunoassay; antibody at 80 RU/ml; kit stored at 37 C for 7 days; mean of two.
The target is the same in test [9]. The test can be described thus: magnetic particle chemiluminescence immunoassay; antibody at 80 RU/ml; kit stored at 37 C for 7 days.
For test [10] the target is unchanged. In words: magnetic particle chemiluminescence immunoassay; antibody at 200 RU/ml; kit stored at 37 C for 7 days.
For test [11] the target is unchanged. In words: magnetic particle chemiluminescence immunoassay; antibody at 80 RU/ml; kit stored at 4 C for 7 days; mean of two.
The target is the same in test [12]. In words: magnetic particle chemiluminescence immunoassay; antibody at 10 RU/ml; kit stored at 37 C for 7 days.
Test [13] has the same target. The test can be described thus: magnetic particle chemiluminescence immunoassay; antibody at 200 RU/ml; kit stored at 37 C for 7 days; mean of two.

Values joined by “and” are separate entries in the source; they are usually repeats but may differ in a detail not shown here. Equal values may be shown once.

Consider “anti-citrullinated peptide antibody (quality control material / calibrator of the kit)”, for which the RLU in test [1] was 2.38e+06 RLU and 2.42e+06 RLU; in test [2], 846000 RLU and 932000 RLU; in [5], 125000 RLU; in [7], 132000 RLU; in test [9], 886000 RLU and 917000 RLU; in test [10], 2.32e+06 RLU and 2.44e+06 RLU. In test [12], this substance displayed an RLU of 124000 RLU. Moreover, the RLU (AVER) is 2.4e+06 RLU in [3]; 124000 RLU in test [4]; 129000 RLU in test [6]; 902000 RLU in [8]; 889000 RLU in test [11]; 2.38e+06 RLU in test [13].

These data come from patent US20210172946A1.
